The text below walks through data of CN113512118A (INST BIOPHYSICS CAS, dated 2021).

For the assay, the target named is T1, sCD146蛋白 (CD146胞外区蛋白, Sino Biological 10115-H08H-20) (human, UniProt P43121 24-559).
T1 construct: extracellular domain; also called 胞外区CD146蛋白
T1 sequence (looked up): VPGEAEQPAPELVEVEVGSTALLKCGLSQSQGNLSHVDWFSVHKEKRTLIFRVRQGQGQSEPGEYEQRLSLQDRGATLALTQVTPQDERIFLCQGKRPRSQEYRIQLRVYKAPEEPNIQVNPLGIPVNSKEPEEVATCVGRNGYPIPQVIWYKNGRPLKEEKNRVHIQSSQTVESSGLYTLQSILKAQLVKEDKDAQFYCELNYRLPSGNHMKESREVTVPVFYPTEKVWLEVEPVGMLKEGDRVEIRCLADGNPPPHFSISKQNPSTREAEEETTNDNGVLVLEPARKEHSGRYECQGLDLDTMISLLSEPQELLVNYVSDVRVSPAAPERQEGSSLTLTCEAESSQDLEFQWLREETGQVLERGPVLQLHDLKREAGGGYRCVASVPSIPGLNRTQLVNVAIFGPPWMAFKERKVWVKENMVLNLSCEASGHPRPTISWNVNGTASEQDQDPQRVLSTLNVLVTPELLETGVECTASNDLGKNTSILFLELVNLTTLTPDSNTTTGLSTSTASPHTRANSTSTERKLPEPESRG
The experiment in a line: BLI (Octet Red96), antibody on Anti-Mouse Fc Capture sensor, sCD146 at 250-3.91 nM. On the technique in general: BLI is a label-free optical method that tracks binding on a fibre tip over time.

B1: AA98抗体 (mouse monoclonal anti-CD146 antibody AA98) (antibody, mouse IgG2a, kappa, V domains shown)
VH: EVQLLESGAELVRPGASVKLSCKTSGYIFTNYWIHWVKNRSGNGLEWIARIYPGTDITYYNEKFKGKATLTVDKSSSSAYMLLSSLKSEDSSVYFCARSGGYWYFDVWGAGTTVTVSS
VL: ELVMTQSPASLAVSLGQRATISCRASKSVSISGYSYMHWYQQKPGQPPKLLIYLASNLESGVPARFSGSGSGTDFTLNIHPVEEEDAATYYCQHSRELPYTFGGGTKLEIKR
notes: also called 母本AA98抗体; 亲本AA98抗体
The Kd is the constant that tells how readily two partners part at equilibrium. A low value points to tighter binding. Molecule B1 yielded a Kd of 1.12 nM.
